{"source": "paper PMC12137749", "about": "(Nature Communications, 2025)", "proteins": {"B1": {"name": "full-length MPXV E5 (mpox virus helicase-primase E5), wild type (enzyme)", "chain": "MDAAIRGNDVIFVLKTIGVPSACRQNEDPRFVEAFKCDELERYIDNNPECTLFESLRDEEAYSIVRIFMDVDLDACLDEIDYLTAIQDFIIEVSNCVARFAFTECGAIHENVIKSMRSNFSLTKSTNRDKTSFHIIFLDTYTTMDTLIAMKRTLLELSRSSENPLTRSIDTAVYRRKTTLRVVGTRKNPNCDTIHVMQPPHDNIEDYLFTYVDMNNNSYYFSLQRRLEDLVPDKLWEPGFISFEDAIKRVSKIFINSIINFNDLDENNFTTVPLVIDYVTPCALCKKRSHKHPHQLSLENGAIRIYKTGNPHSCKVKIVPLDGNKLFNIAQRILDTNSVLLTERGDHIVWINNSWKFNSEEPLITKLILSIRHQLPKEYSSELLCPRKRKTVEANIRDMLVDSVETDTYPDKLPFKNGVLDLVDGMFYSGDDAKKYTCTVSTGFKFDDTKFVEDSPEMEELMNIINDIQPLTDENKKNRELYEKTLSSCLCGATKGCLTFFFGETATGKSTTKRLLKSAIGDLFVETGQTILTDVLDKGPNPFIANMHLKRSVFCSELPDFACSGSKKIRSDNIKKLTEPCVIGRPCFSNKINNRNHATIIIDTNYKPVFDRIDNALMRRIAVVRFRTHFSQPSGREAAENNDAYDKVKLLDEGLDGKIQNNRYRFAFLYLLVKWYKKYHIPIMKLYPTPEEIPDFAFYLKIGTLLVSSSVKHIPLMTDLSKKGYILYDNVVTLPLTTFQQKISKYFNSRLFGHDIESFINRHKKFANVSDEYLQYIFIEDISSP"}}, "key": {"[1]": {"molecular_target": "the molecule itself"}, "cryo-EM structure": {"molecular_target": "the molecule itself", "experiment": "cryo-EM structure"}}, "note": "Read-outs that look alike come from different tables or passages of the source."}
{"protein": "B1", "values": [{"measurement": "stoichiometry N", "setting": "[1]", "result": 6}, {"measurement": "stoichiometry N", "setting": "cryo-EM structure", "result": 12}]}
